The results in this text go back to patent US5360895A, “Derivatized gold clusters and antibody-gold cluster conjugates” (priority 1992, dated 1994).

Bounds are passed on as bounds.

Data set [1] in a line: Thermal stability of gold clusters. Format: physicochemical.
Data set [2] relates to human colon carcinoma cells. The data set is described as follows: Radioimmunoassay, cell binding of gold labeled F(ab')2 to cultured human colon carcinoma cells. The data set is classed as cell-based. As to conditions: 17-1A; in words. The procedure:
(§1) Both of these methods were used to prepare F(ab')2 -Au11 conjugates using 17-1A mouse monoclonal antibody which is specific for human colorectal tumors. After preparation, this labeled antibody was tested to find if its immunoreactivity had been altered. A radioimmunoassay was performed using cell binding to cultured human colon carcinoma cells and to melanoma cells (the control).

The subject of the next data set is human colon carcinoma. The data set is described as follows: In vivo biodistribution of radiogold cluster 17-1A conjugates in nude mice bearing human tumors. As to conditions: 24 hr after injection; for blood, % of injected dose per gram of tissue / bone, % of injected dose per gram of tissue / gut, % of injected dose per gram of tissue / heart, % of injected dose per gram of tissue / kidneys, % of injected dose per gram of tissue / liver, % of injected dose per gram of tissue / lung, % of injected dose per gram of tissue / muscle, % of injected dose per gram of tissue / spleen, % of injected dose per gram of tissue / stomach, % of injected dose per gram of tissue / tumor, % of injected dose per gram of tissue: normalized to 25 g animals. The protocol:
Nude mice bearing human colon carcinoma or melanoma tumors were injected with radioactive gold clusters conjugated to anti-tumor antibodies. Two antibodies were gold labeled, one (17-1A) against the human colon carcinoma and another non-relevant antibody, H2 4B5 anti-influenza. The non-relevant tumor (melanoma) and non-relevant gold conjugated antibody (H2 4B5) served as controls. A total of 53 mice were used. In order to assess the efficacy of using gold labeled Fab' versus whole IgG, both types of antibody were labeled and tested. In addition, two crosslinking arms between the gold cluster and antibody were used, one, as described in the preparation example, was N-methoxycarbonyl maleimide (NMCM), whereas the other was n-maleimidobenzoyl-N-hydroxysuccinimide ester (MBS), This was to test if a different covalent crosslinker between the gold cluster and antibody or antibody fragment yielded conjugates with different stabilities or body distributions in vivo.
In vivo biodistribution of radiogold cluster 17-1A conjugates. Data,
after injection is expressed in % of injected dose per gram of tissue.
Tumor to normal tissue ratios are given in parentheses. Three or four
sample were averaged; normalized to 25 g animals.

For another data set, the system named is melanoma cells (WM164). The experiment in a line: In vitro cell binding of 17-1A-Au11 conjugates, control melanoma (radioactivity of gold). As to conditions: for % bound to control cells (melanoma): percent of applied radioactive gold bound after incubation and washing, average ± s.d. of 2 samples.
Data set [3] deals with human colon carcinoma cells (LS180). The experiment in a line: In vitro cell binding of 17-1A-Au11 conjugates, human colon carcinoma (radioactivity of gold). As to conditions: percent of applied radioactive gold bound after incubation and washing; average ± s.d. of 2 samples.
Experimental: (§3) The 17-1A Fab' fragment-(radioactive gold)-undecagold cluster conjugate was incubated in vitro with tumor cells (LS180- a cell culture of human colon carcinoma) and non tumor cells (WM164 - a cell culture of melanoma as control) and the radioactivity of the gold was used to assay binding.
(§4) bound to cells after incubation and washing.
(§5) entry is an average (+ s.d.) of 2 samples.
A further data set relates to melanoma cells. The data set is described as follows: Radioimmunoassay, cell binding of gold labeled F(ab')2 to melanoma cells (control). The data set is classed as cell-based. As to conditions: 17-1A; in words. The protocol: as §1
The test system of data set [4] is Human colon carcinoma cells (cell line LS180). The data set is described as follows: Silver enhanced staining of human colon carcinoma cells, light microscope. As to conditions: approximately 45 minutes developer. The data set is classed as cell-based. The procedure: Human colon carcinoma cells (cell line LS180) were grown in tissue culture media. The cells were harvested with a brief trypsin treatment and centrifuged. They were then resuspended in phosphate buffered saline with 5% IgG free horse serum.
(§2) Assuming each call has approx. 10^6 antibody binding sites, a ten fold molar excess over this of undecagold cluster-labeled 17-1A monoclonal antibody was applied. Cells were incubated at room temperature for one hour on a wrist shaker device. The cells were then centrifuged at 1100 rpm for 5 minutes and the supernatent discarded. Additional buffer was added to resuspend the cells and after 3 minutes they were centrifuged again. Three of these washes were done. As a control, melanoma cells (cell line WM 164) were also prepared in a similar fashion. Cells were concentrated onto glass microscope slides using a Cytospin device. […] UV exposure for 5 minutes prior to development enhanced this color.

The test system of data set [5] is melanoma cells (cell line WM 164). The data set is described as follows: Silver enhanced staining of control melanoma cells, light microscope. As to conditions: approximately 45 minutes developer. Format: cell-based. The procedure:
as §2

Experimental for melanoma cells (WM164): as §3, §4, §5

Consider “Au55 [P(PhCONHCH3)3 ]11 P(PhCONHCH3)2 [derivatized Au55 cluster, Au55 [P(PhCONHCH3)3 ]11 P(PhCONHCH3)2 [PhCONH(CH2)3 N(CO)2 (CH)2 ]]”, for which, in data set [1], the “temperature above which the cluster deteriorates rapidly” value is “above 70 °C”.

B1: F(ab')2 -Au11: F(ab')2 -Au11 conjugate of 17-1A mouse monoclonal antibody specific for human colorectal tumors (conjugate, chains of the INN, looked up)
VH: QVQLQQSGAELVRPGTSVKVSCKASGYAFTNYLIEWVKQRPGQGLEWIGVINPGSGGTNYNEKFKGKATLTADKSSSTAYMQLSSLTSDDSAVYFCARDGPWFAYWGQGTLVTVSA
VL: NIVMTQSPKSMSMSVGERVTLTCKASENVVTYVSWYQQKPEQSPKLLIYGASNRYTGVPDRFTGSGSATDFTLTISSVQAEDLADYHCGQGYSYPYTFGGGTKLEIK
modifications: F(ab')2 undecagold cluster label
notes: F(ab')2 -Au11 conjugate of 17-1A mouse monoclonal antibody specific for human colorectal tumors
For the molecule B1, the “binding to the tumor cells versus native unlabeled F(ab')2” value in data set [2] is reported as “virtually identical binding to the tumor cells as did native unlabeled F(ab')2”. In addition, in the data set with human colon carcinoma, the “Tumor to normal tissue ratio, blood” value was 1.5; the “Tumor to normal tissue ratio, bone” value is given as 3.5; the “Tumor to normal tissue ratio, gut” value is reported as 5.3; the “Tumor to normal tissue ratio, heart” value came to 3.4. Also, in the data set with human colon carcinoma, the “Tumor to normal tissue ratio, kidneys” value amounted to 0.1; the “Tumor to normal tissue ratio, liver” value came out at 0.8; the “Tumor to normal tissue ratio, lung” value worked out at 1.8; the “Tumor to normal tissue ratio, muscle” value stood at 8.6. For the same molecule, in the data set on human colon carcinoma, the “Tumor to normal tissue ratio, spleen” value came out at 1.3; the “Tumor to normal tissue ratio, stomach” value is recorded as 9.1; the “blood, % of injected dose per gram of tissue” value is given as 5.6 ± 0.4 % of injected dose per gram of tissue; the “bone, % of injected dose per gram of tissue” value is 2.4 ± 0.2 % of injected dose per gram of tissue. Besides, in the data set with human colon carcinoma, the “gut, % of injected dose per gram of tissue” value is 1.6 ± 0.2 % of injected dose per gram of tissue; the “heart, % of injected dose per gram of tissue” value is 3.2 ± 0.4 % of injected dose per gram of tissue; the “kidneys, % of injected dose per gram of tissue” value is listed as 117.0 ± 20 % of injected dose per gram of tissue; the “liver, % of injected dose per gram of tissue” value was 10.5 ± 0.4 % of injected dose per gram of tissue. In addition, in the data set with human colon carcinoma, the “lung, % of injected dose per gram of tissue” value is on record as 4.6 ± 0.1 % of injected dose per gram of tissue; the “muscle, % of injected dose per gram of tissue” value was 0.98 ± 0.08 % of injected dose per gram of tissue; the “spleen, % of injected dose per gram of tissue” value was 6.4 ± 0.8 % of injected dose per gram of tissue; the “stomach, % of injected dose per gram of tissue” value is 0.93 ± 0.19 % of injected dose per gram of tissue. Moreover, in the data set on human colon carcinoma, the “tumor, % of injected dose per gram of tissue” value is 8.4 ± 0.6 % of injected dose per gram of tissue. In addition, in the data set with melanoma cells (WM164) (WM164, text statement on Table 1, "or background for F(ab')2"), the “radioactive gold on the non-tumor cells” value is recorded as under 0.4%. For the same molecule, in the data set with melanoma cells (WM164), the “% bound to control cells (melanoma)” value came to 0.30 ± 0.03%. Besides, in data set [3], the “% bound to tumor cells (human colon carcinoma)” value is reported as 16.13 ± 0.02%. The “binding to the control cells” value in the data set with melanoma cells is on record as “no binding to the control cells”.

B2: undecagold cluster-labeled 17-1A monoclonal antibody: undecagold cluster-labeled 17-1A monoclonal antibody (conjugate, chains of the INN, looked up)
VH: QVQLQQSGAELVRPGTSVKVSCKASGYAFTNYLIEWVKQRPGQGLEWIGVINPGSGGTNYNEKFKGKATLTADKSSSTAYMQLSSLTSDDSAVYFCARDGPWFAYWGQGTLVTVSA
VL: NIVMTQSPKSMSMSVGERVTLTCKASENVVTYVSWYQQKPEQSPKLLIYGASNRYTGVPDRFTGSGSATDFTLTISSVQAEDLADYHCGQGYSYPYTFGGGTKLEIK
modifications: undecagold cluster label
B2: the “staining of cells after silver developer” value in data set [4] is given as “became brown in color, easily identifiable in the light microscope”. Further, the “staining of control cells after silver developer” value in data set [5] was “clear and showed virtually no staining”.

B3: IgG-Au11: 17-1A whole IgG labeled with monomaleimidopropyl undecagold cluster, about 2 Au clusters per IgG (conjugate, chains of the INN, looked up)
VH: QVQLQQSGAELVRPGTSVKVSCKASGYAFTNYLIEWVKQRPGQGLEWIGVINPGSGGTNYNEKFKGKATLTADKSSSTAYMQLSSLTSDDSAVYFCARDGPWFAYWGQGTLVTVSA
VL: NIVMTQSPKSMSMSVGERVTLTCKASENVVTYVSWYQQKPEQSPKLLIYGASNRYTGVPDRFTGSGSATDFTLTISSVQAEDLADYHCGQGYSYPYTFGGGTKLEIK
modifications: undecagold cluster label
notes: 17-1A whole IgG labeled with monomaleimidopropyl undecagold cluster, about 2 Au clusters per IgG
For the molecule B3, in the data set on human colon carcinoma, the “Tumor to normal tissue ratio, blood” value amounted to 2.5; the “Tumor to normal tissue ratio, bone” value came to 3.6; the “Tumor to normal tissue ratio, gut” value amounted to 7.2; the “Tumor to normal tissue ratio, heart” value stood at 3.1. In the data set on human colon carcinoma, the “Tumor to normal tissue ratio, kidneys” value amounted to 0.5; the “Tumor to normal tissue ratio, liver” value was 1.7; the “Tumor to normal tissue ratio, lung” value came to 2.3; the “Tumor to normal tissue ratio, muscle” value is listed as 10.0. In the data set with human colon carcinoma, the “Tumor to normal tissue ratio, spleen” value was determined as 0.8; the “Tumor to normal tissue ratio, stomach” value was 11.6; the “blood, % of injected dose per gram of tissue” value is on record as 3.2 ± 0.6 % of injected dose per gram of tissue; the “bone, % of injected dose per gram of tissue” value is listed as 2.2 ± 0.3 % of injected dose per gram of tissue. Further, in the data set with human colon carcinoma, the “gut, % of injected dose per gram of tissue” value is on record as 1.1 ± 0.3 % of injected dose per gram of tissue; the “heart, % of injected dose per gram of tissue” value is listed as 2.6 ± 0.4 % of injected dose per gram of tissue; the “kidneys, % of injected dose per gram of tissue” value is listed as 17.1 ± 3.1 % of injected dose per gram of tissue; the “liver, % of injected dose per gram of tissue” value is 4.6 ± 0.7 % of injected dose per gram of tissue. In the data set on human colon carcinoma, the “lung, % of injected dose per gram of tissue” value is on record as 3.4 ± 0.9 % of injected dose per gram of tissue; the “muscle, % of injected dose per gram of tissue” value is recorded as 0.80 ± 0.23 % of injected dose per gram of tissue; the “spleen, % of injected dose per gram of tissue” value was 9.5 ± 0.3 % of injected dose per gram of tissue; the “stomach, % of injected dose per gram of tissue” value is reported as 0.69 ± 0.20 % of injected dose per gram of tissue. Further, in the data set on human colon carcinoma, the “tumor, % of injected dose per gram of tissue” value is reported as 8.0 ± 3.2 % of injected dose per gram of tissue. In addition, the “% bound to control cells (melanoma)” value in the data set on melanoma cells (WM164) is on record as 0.77 ± 0.08%. In addition, in data set [3], the “% bound to tumor cells (human colon carcinoma)” value was found to be 14.32 ± 0.92%.
